Assay results as given in article PMC3629940, “Exploring the structure and function of Thermotoga maritima CorA reveals the mechanism of gating and ion selectivity in Co^2+/Mg^2+ transport” (Biochemical Journal, 2013).

B1: Thermotoga maritima CorA N288L mutant (natural protein)
chain: MEEKRLSAKKGLPPGTLVYTGKYREDFEIEVMNYSIEEFREFKTTDVESVLPFRDSSTPTWINITGIHRTDVVQRVGEFFGIHPLVLEDILNVHQRPKVEFFENYVFIVLKMFTYDKNLHELESEQVSLILTKNCVLMFQEKIGDVFDPVRERIRYNRGIIRKKRADYLLYSLIDALVDDYFVLLEKIDDEIDVLEEEVLERPEKETVQRTHQLKRNLVELRKTIWPLREVLSSLYRDVPPLIEKETVPYFRDVYDHTIQIADTVETFRDIVSGLLDVYLSSVSNKTLEVMKVLTIIATIFMPLTFIAGIYGMNFEYMPELRWKWGYPVVLAVMGVIAVIMVVYFKKKKWL
notes: CorA of Thermotoga maritima with N288L; source: E. coli, overexpressed, purified (1% DDM solubilisation, Ni-NTA, TEV cleavage, Superdex 200)
B2: Thermotoga maritima CorA T295L mutant (natural protein)
chain: MEEKRLSAKKGLPPGTLVYTGKYREDFEIEVMNYSIEEFREFKTTDVESVLPFRDSSTPTWINITGIHRTDVVQRVGEFFGIHPLVLEDILNVHQRPKVEFFENYVFIVLKMFTYDKNLHELESEQVSLILTKNCVLMFQEKIGDVFDPVRERIRYNRGIIRKKRADYLLYSLIDALVDDYFVLLEKIDDEIDVLEEEVLERPEKETVQRTHQLKRNLVELRKTIWPLREVLSSLYRDVPPLIEKETVPYFRDVYDHTIQIADTVETFRDIVSGLLDVYLSSVSNKTNEVMKVLLIIATIFMPLTFIAGIYGMNFEYMPELRWKWGYPVVLAVMGVIAVIMVVYFKKKKWL
notes: CorA of Thermotoga maritima with T295L; source: E. coli, overexpressed, purified (1% DDM solubilisation, Ni-NTA, TEV cleavage, Superdex 200)
B3: Thermotoga maritima CorA T299L mutant (natural protein)
chain: MEEKRLSAKKGLPPGTLVYTGKYREDFEIEVMNYSIEEFREFKTTDVESVLPFRDSSTPTWINITGIHRTDVVQRVGEFFGIHPLVLEDILNVHQRPKVEFFENYVFIVLKMFTYDKNLHELESEQVSLILTKNCVLMFQEKIGDVFDPVRERIRYNRGIIRKKRADYLLYSLIDALVDDYFVLLEKIDDEIDVLEEEVLERPEKETVQRTHQLKRNLVELRKTIWPLREVLSSLYRDVPPLIEKETVPYFRDVYDHTIQIADTVETFRDIVSGLLDVYLSSVSNKTNEVMKVLTIIALIFMPLTFIAGIYGMNFEYMPELRWKWGYPVVLAVMGVIAVIMVVYFKKKKWL
notes: CorA of Thermotoga maritima with T299L; source: E. coli, overexpressed, purified (1% DDM solubilisation, Ni-NTA, TEV cleavage, Superdex 200)

Biological target: the molecule itself
Experiment: SEC; size-exclusion chromatography of the mutants to verify channel intactness (Supplementary Figure S2); conditions of this run not told
B1: binds.
B2: binds.
B3: binds.
